Measured values reported in PMC3050729, “Novel computational analysis of protein binding array data identifies direct targets of Nkx2.2 in the pancreas”.

T1: Nkx2.2 (in vitro translated) (UniProt P42586 1-273)
T1 sequence: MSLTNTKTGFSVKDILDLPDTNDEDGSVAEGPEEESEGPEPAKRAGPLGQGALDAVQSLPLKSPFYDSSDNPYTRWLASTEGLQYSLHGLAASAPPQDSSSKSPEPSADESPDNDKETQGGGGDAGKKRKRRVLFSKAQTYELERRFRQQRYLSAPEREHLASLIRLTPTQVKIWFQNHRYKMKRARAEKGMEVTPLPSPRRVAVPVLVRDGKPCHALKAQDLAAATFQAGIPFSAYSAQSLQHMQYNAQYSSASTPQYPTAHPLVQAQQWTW

B1: Ins2 -144 (dsDNA)
DNA 1: TGCTTTCTGCAGACCTAGCACCAGGCAAGTGTTTGGAAACTGCAGCT
DNA 2: CTGAAGCTGCAGTTTCCAAACACTTGCCTGGTGCTAGGTCTGCAGAA
B2: Ins2 -477 (Ins -471 in probe list) (dsDNA)
DNA 1: AAGCAGAACTCAGGCAGCAAGGTACTTAATGGTCCCTCCTTCTCCATC
DNA 2: AGAGATGGAGAAGGAGGGACCATTAAGTACCTTGCTGCCTGAGTTCT
B3: Nkx6.2 +1669 (+669 in probe list) (dsDNA)
DNA 1: CCGAATCCCGCGCGGGCCACTTACCGGAGCCGGCCAGTCGCGGGTCCCTC
DNA 2: CTGGAGGGACCCGCGACTGGCCGGCTCCGGTAAGTGGCCCGCGCGGGATT
B4: Gcg -1080 (dsDNA)
DNA 1: AGACCATTGAAACAACTGGAGGAGTACTCTGACTGAACTTAATTCTTCAT
DNA 2: AGAATGAAGAATTAAGTTCAGTCAGAGTACTCCTCCAGTTGTTTCAATGG
B5: Nkx2.2 AAGT consensus (dsDNA)
DNA 1: TCGACGCGATTTTTCAAGTGGTTTTCAGTAGC
DNA 2: AGCTGCTACTGAAAACCACTTGAAAAATCGCG

Target: T1, Nkx2.2 (in vitro translated)
Test: EMSA; EMSA as in ref 20; buffer, salt, pH and temperature not given
Details: protein: ivt, label: 32P-dCTP Klenow fill-in, filled in with Klenow

| Binder | binding result (5' overhangs) | binding result (5' overhang 4 nt) |
| --- | --- | --- |
| B1 | no binding |  |
| B2 | binds |  |
| B3 | no binding |  |
| B4 | no binding |  |
| B5 |  | binds |
